{"source": "patent US20180057581A1", "about": "(MorphoSys, published 2018)", "binders": {"B1": {"name": "Camille (format not stated) (antibody, V domains shown)", "VH": "QVQLQQSGPGLVKPSQTLSLTCAISGESVSTSSAAWNWIRQSPSRGLEWLGRTYYRSKWKHEYAVSVKSRITINPDTSKNQFSLQLNSVTPEDTAVYYCARDRYYYSAFDYWGQGTLVTVSS", "VL": "QSALTQPASVSGSPGQSITISCTGTSSDVGGYNSVSWYQQHPGKAPKLLIYAVSNRPSGVSNRFSGSKSGNTASLTISGLQAEDEADYYCASYDERFTRVFGGGTKLTVLG", "notes": "also called Antibody Camille"}}, "key": {"[1]": {"target": "T1, Recombinant cynomolgus monkey sgM-CSF (cynomolgus (Macaca fascicularis), UniProt P09603 33-255 (human entry), limits assumed)", "T1 chain": "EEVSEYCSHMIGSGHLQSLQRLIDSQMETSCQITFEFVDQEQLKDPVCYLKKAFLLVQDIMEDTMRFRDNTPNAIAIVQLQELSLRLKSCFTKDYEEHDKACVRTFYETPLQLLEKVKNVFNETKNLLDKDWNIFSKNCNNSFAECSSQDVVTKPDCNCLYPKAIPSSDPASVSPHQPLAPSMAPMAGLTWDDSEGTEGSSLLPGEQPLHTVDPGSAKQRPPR", "assay": "cell-based or functional assay"}, "[2]": {"target": "T1, Recombinant cynomolgus monkey sgM-CSF", "assay": "Table 12 summary, criterion Binding, Cynomolgus M-CSF; assay and antibody format not named there"}, "[3]": {"target": "T2, Lectin (Lens culinaris) (Lens culinaris, UniProt P02870 31-210; P02870 218-269, limits assumed)", "T2 sequence (looked up) 1": "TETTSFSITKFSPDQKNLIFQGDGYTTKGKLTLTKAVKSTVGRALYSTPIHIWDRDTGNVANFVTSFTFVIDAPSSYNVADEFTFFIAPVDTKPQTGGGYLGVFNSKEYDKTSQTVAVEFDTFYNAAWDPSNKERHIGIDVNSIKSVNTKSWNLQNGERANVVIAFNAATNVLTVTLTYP", "T2 sequence (looked up) 2": "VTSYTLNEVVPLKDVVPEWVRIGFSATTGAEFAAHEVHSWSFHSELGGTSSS", "assay": "MSD specificity profiling, coated protein, Camille at 100 nM", "procedure": "(§1) For this specificity profiling test the different proteins and controls were coated on two 384-well MSD plates with a concentration of 1 μg/ml at 4° C. over night. Plates were blocked with BSA and washed three times with PBS with 0.05% (v/v) Tween 20. Antibody samples were diluted to 100 nM and 10 nM in assay buffer (PBS with 0.5% (w/v) BSA, 0.05% (v/v) Tween 20). […] Samples and controls were incubated for three hours at room temperature. The plates were washed three times and 30 μl detection antibody (ECL-labeled anti-human Fab) were added per well and incubated for 1 h. After washing, MSD Read Buffer T with surfactant was added and electrochemiluminescence signals were detected using a Sector Imager 6000 (Meso Scale Discovery, Gaithersburg, Md., USA)."}, "[4]": {"target": "Cytokine 1 (human) (human)", "assay": "MSD specificity profiling, coated protein, Camille at 100 nM", "procedure": "as §1"}, "[5]": {"target": "T3, Fibrinogen (bovine) (bovine, UniProt P02672 20-615; P02676 1-468; P12799 25-444)", "T3 sequence (looked up) 1": "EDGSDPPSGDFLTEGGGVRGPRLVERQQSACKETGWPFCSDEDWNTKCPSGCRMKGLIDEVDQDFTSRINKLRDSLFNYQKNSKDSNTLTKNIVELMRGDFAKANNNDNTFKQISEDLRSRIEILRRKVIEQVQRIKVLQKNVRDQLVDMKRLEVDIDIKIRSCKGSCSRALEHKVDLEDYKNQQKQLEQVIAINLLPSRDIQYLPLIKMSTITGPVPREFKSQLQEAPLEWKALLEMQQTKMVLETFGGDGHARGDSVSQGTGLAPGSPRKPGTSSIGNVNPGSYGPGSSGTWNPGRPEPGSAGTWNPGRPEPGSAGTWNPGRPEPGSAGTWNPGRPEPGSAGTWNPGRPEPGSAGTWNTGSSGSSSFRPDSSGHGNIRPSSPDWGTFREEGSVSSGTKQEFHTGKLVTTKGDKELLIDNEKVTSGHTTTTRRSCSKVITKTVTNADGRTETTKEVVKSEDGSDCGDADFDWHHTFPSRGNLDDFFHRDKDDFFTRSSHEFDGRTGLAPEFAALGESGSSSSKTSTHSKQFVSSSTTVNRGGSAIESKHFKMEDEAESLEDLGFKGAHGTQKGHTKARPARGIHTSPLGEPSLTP", "T3 sequence (looked up) 2": "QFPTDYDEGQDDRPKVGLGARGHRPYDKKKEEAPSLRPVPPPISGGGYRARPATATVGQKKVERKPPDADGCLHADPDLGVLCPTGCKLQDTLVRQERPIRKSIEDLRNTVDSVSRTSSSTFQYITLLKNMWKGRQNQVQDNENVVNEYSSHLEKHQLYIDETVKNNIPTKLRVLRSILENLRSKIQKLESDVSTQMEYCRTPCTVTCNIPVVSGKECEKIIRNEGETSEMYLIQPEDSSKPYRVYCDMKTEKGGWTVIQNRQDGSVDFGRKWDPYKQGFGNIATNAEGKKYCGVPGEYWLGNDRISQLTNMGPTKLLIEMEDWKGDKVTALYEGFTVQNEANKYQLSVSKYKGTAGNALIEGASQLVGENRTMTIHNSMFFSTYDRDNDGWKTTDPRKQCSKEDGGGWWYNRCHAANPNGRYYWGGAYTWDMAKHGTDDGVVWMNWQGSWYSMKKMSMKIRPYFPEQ", "T3 sequence (looked up) 3": "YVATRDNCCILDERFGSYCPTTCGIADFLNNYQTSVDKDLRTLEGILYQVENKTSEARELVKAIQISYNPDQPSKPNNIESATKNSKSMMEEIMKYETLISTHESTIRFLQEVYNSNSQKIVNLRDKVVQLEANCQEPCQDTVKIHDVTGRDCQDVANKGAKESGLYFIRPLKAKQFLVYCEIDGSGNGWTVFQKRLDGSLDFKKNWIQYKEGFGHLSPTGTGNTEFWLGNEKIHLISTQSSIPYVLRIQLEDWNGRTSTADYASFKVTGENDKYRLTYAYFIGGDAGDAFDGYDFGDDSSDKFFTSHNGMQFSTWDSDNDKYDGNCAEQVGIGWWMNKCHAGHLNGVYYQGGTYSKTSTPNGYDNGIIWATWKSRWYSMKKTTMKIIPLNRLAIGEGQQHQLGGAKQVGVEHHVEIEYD", "assay": "MSD specificity profiling, coated protein, Camille at 100 nM", "procedure": "as §1"}, "[6]": {"target": "T4, Recombinant human sgM-CSF (human, UniProt P09603 33-255)", "T4 construct": "also called human secreted glycosylated M-CSF; Human M-CSF", "T4 sequence": "T1 chain with M186V, D192E", "assay": "Receptor binding assay, inhibition of human M-CSF binding to M-CSF receptor (competitor CSF1-R-Fc); Table 12 summary"}, "[7]": {"target": "GM-CSF (Homo sapiens (Human), UniProt P04141 18-144)", "sequence (P04141 18-144 limits assumed)": "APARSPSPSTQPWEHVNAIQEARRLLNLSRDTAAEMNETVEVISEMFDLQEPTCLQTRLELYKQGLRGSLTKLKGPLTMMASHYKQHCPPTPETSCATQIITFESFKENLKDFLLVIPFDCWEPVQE", "assay": "not described (Table 12, criterion Binding)"}}, "note": "Changes are numbered by the printed parent chain.", "data": [{"binder": "B1", "values": [{"measurement": "Cell viability assay (IC50), Cynomolgus M-CSF", "setting": "[1]", "result": 3, "unit": "pM"}, {"measurement": "Kd", "setting": "[2]", "result": 0.025, "unit": "nM"}, {"measurement": "signal normalized to reference antibody MOR03207", "setting": "[3]", "result": 1, "unit": "ratio"}, {"measurement": "signal normalized to reference antibody MOR03207", "setting": "[4]", "result": 1, "unit": "ratio"}, {"measurement": "signal normalized to reference antibody MOR03207", "setting": "[5]", "result": 1, "unit": "ratio"}, {"measurement": "IC50", "setting": "[6]", "result": 4, "unit": "pM"}, {"measurement": "binding result", "setting": "[7]", "result": "no binding"}]}]}
